Measurements as given in patent US20020119154A1 (University of Pennsylvania, published 2002).

B1: recombinant human prolactin binding protein (rhPRLBP) (receptor, UniProt P16471 25-234, looked up)
chain: QLPPGKPEIFKCRSPNKETFTCWWRPGTDGGLPTNYSLTYHREGETLMHECPDYITGGPNSCHFGKQYTSMWRTYIMMVNATNQMGSSFSDELYVDVTYIVQPDPPLELAVEVKQPEDRKPYLWIKWSPPTLIDLKTGWFTLLYEIRLKPEKAAEWEIHFAGQQTEFKILSLHPGQKYLVQVRCKPDHGYWSAWSPATFIQIPSDFTMND
B2: human prolactin (hPRL) (ligand, UniProt P01236 29-227, looked up)
chain: LPICPGGAARCQVTLRDLFDRAVVLSHYIHNLSSEMFSEFDKRYTHGRGFITKAINSCHTSSLATPEDKEQAQQMNQKDFLSLIVSILRSWNEPLYHLVTEVRGMQEAPEAILSKAVEIEEQTKRLLEGMELIVSQVHPETKENEIYPVWSGLPSLQMADEESRLSAYYNLLHCLRRDSHKIDNYLKLLKCRIIHNNNC
notes: Serum PRL and added hPRL are treated as one molecule; also called serum PRL; plasma PRL

Columns and labels:
human prolactin (hPRL) = target: B2; experiment: cell-based or functional assay
[1] = target: B1; experiment: surface plasmon resonance, various concentrations of rPRLBP; binding site I of PRL; rPRLBP in solution at various concentrations

Binder | rat Nb2-11C lymphoma cell proliferation (tritiated thymidine uptake), 50 pM hPRL, 0-100 nM rhPRLBP (human prolactin (hPRL)) | Kd [1]
B1 | 3 fold | –
B2 | – | 13.4 nM
